This note sets out measurements from patent publication US6458552B1, “Metalloprotease peptide substrates and methods” (Ortho-McNeil Pharmaceutical, Inc., priority 2000, dated 2002).

One data set relates to ADAM8. Description: ADAM8 protein expression in THP-1 cells (immunoblot). The class given is cell-based, human. The note with it: LPS 100 ng/ml 16 hours, IFN-γ 200U/ml 24 hours. Here is the method: Polyclonal antisera against ADAM8 and ADAM15 were generated by immunizing rabbits with KLH-conjugated peptides corresponding to the C-terminal sequences of ADAM8 and 15, respectively. The antisera were used to detect ADAM8 and ADAM15 in THP-1 cell lysates. THP-1 cells were treated with interferon(IFN)-γ (200U/ml) or bacterial lipopolysaccharide (LPS) (100 ng/ml), for 24 hours or 16 hours, respectively. The cells were then harvested, washed with PBS and lysed in PBS containing 1% NP-40 and Complete® protease inhibitors. The cell extracts were analyzed for expression of ADAM8 and ADAM15 by SDS-PAGE, transfer to nitrocellulose, and immunoblotting with the antisera to ADAM8 and ADAM15, respectively. […] The corresponding pre-immune sera gave no positive bands at these molecular weights for THP-1 cell extracts in similar assays.
(In general: A western blot detects proteins with antibodies after separation by electrophoresis.)

Data set [1] deals with T1, CatE FRET peptide X-KPAAFFRL-Z (not fully specified).
T1 chain: KPAAFFRL

Data set [2] has as its target T2, TNFα FRET peptide X-PLAQAVRSSS-Z (not fully specified).
T2 chain: PLAQAVRSSS

For data set [3], the target named is T3, CatE1 FRET peptide X-KPAKFFRL-Z (not fully specified).
T3 chain: KPAKFFRL

For data set [4], the target named is T4, Mat FRET peptide Z-RPLGLAR-X (not fully specified).
T4 chain: RPLGLAR

For data set [5], the target named is T5, TNFB2 FRET peptide X-PSAAQTARQHP-Z (not fully specified).
T5 chain: PSAAQTARQHP

In data set [6] the target is T6, KAS-1 FRET peptide Z-RGVVNASSRLAK-X (not fully specified).
T6 chain: RGVVNASSRLAK

Data set [7] has as its target T7, CD27L FRET peptide X-RFAQAQQQLP-Z (not fully specified).
T7 chain: RFAQAQQQLP

Data set [8] concerns the target T8, TNFα(-4 + 6) FRET peptide Z-LAQAVRSSSR-X (not fully specified).
T8 chain: LAQAVRSSSR

Data set [9] deals with T9, AD8P2 FRET peptide X-RVRRALPS-Z (not fully specified).
T9 chain: RVRRALPS

Data set [10] deals with T10, KL1 FRET peptide X-PPVAASSLRN-Z (not fully specified).
T10 chain: PPVAASSLRN

The target in data set [11] is T11, AD8P FRET peptide X-RTAAVFRP-Z (not fully specified).
T11 chain: RTAAVFRP

Another data set deals with membrane-bound CD23. Put plainly: Cleavage of CD23 from the surface of U937 cells by ADAM enzymes (flow cytometry). The settings on record: U-937 cells, one hour at 37° C. The class given is cell-based, human. On the procedure:
U-937 (ATCC CRL-1593.2), a monoblastoid cell line, were harvested, washed and resuspended in HEPES-buffered saline, pH 7.5. Then the cells were treated for one hour at 37° C. in the absence or presence of ADAM8, ADAM17, ADAM15 or MDC-L. As a further control, some cells were incubated in the presence of ADAM8, ADAM17, ADAM15 or MDC-L with the addition of Inhibitor C. Intact, membrane-bound CD23 was then detected by staining the cells with a FITC-conjugated anti-human CD23 antibody (Pharmingen) and detection by flow cytometry.
On the technique in general: In flow cytometry, cells or beads pass a laser one at a time.

For IFN-γ: interferon-γ, in the data set with ADAM8, the “Up-regulation of ADAM8 at the protein level” value is “approximately ten-fold”.

B1: soluble recombinant human MDC-L, active form (protein)
chain: VQEHEKYIEYYLVLDNGEFKRYNENQDEIRKRVFEMANYVNMLYKKLNTHVALVGMEIWTDKDKIKITPNASFTLENFSKWRGSVLSRRKRHDIAQLITATELAGTTVGLAFMSTMCSPYSVGVVQDHSDNLLRVAGTMAHEMGHNFGMFHDDYSCKCPSTICVMDKALSFYIPTDFSSCSRLSYDKFFEDKLSNCLFNAP
In the case of B1, the Relative proteolytic activity entry in [1] was “*****”; in data set [2], “***”; in data set [3] it was “*****”; in data set [4], “***”; in [5], “***”; in data set [6], “***”. Also, the Relative proteolytic activity result in [7] was “****”; in [8] it was “*”; in data set [9] it was “***”; in data set [10] it was “***”; in data set [11] it was “*”.

B2: MDC-L: recombinant soluble MDC-L: pro- and protease domains with C-terminal FLAG epitope (protein)
chain: B1 chain
modifications: left off: small tags and cut ends
Turning to B2, the “Cleavage of membrane-bound CD23 from the cell surface” value in the data set with membrane-bound CD23 is given as “similarly found to cleave membrane-bound CD23”.

B3: recombinant ADAM17 (protein)
chain: RADPDPMKNTCKLLVVADHRFYRYMGRGEESTTTNYLIELIDRVDDIYRNTSWDNAGFKGYGIQIEQIRILKSPQEVKPGEKHYNMAKSYPNEEKDAWDVKMLLEQFSFDIAEEASKVCLAHLFTYQDFDMGTLGLAYVGSPRANSHGGVCPKAYYSPVGKKNIYLNSGLTSTKNYGKTILTKEADLVTTHELGHNFGAEHDPDGLAECAPNEDQGGKYVMYPIAVSGDHENNKMFSNCSKQSIYKTIESKAQECFQERSNKV
Turning to B3, the “Cleavage of membrane-bound CD23 from the cell surface” value with membrane-bound CD23 was “does not cleave CD 23”. The Relative proteolytic activity result was “(-)” in [1]; “***” in data set [2]; “(-)” in data set [3]; “***” in data set [4]; “(-)” in data set [5]; “(-)” in data set [6]. In addition, the Relative proteolytic activity entry in [7] is given as “(-)”; in data set [8], “***”; in data set [9], “(-)”; in data set [10], “(-)”; in [11], “*****”.

B4: soluble recombinant human ADAM15, active form (protein)
chain: DVVTETKTVELVIVADHSEAQKYRDFQHLLNRTLEVALLLDTFFRPLNVRVALVGLEAWTQRDLVEISPNPAVTLENFLHWRRAHLLPRLPHDSAQLVTGTSFSGPTVGMAIQNSICSPDFSGGVNMDHSTSILGVASSIAHELGHSLGLDHDLPGNSCPCPGPAPAKTCIMEASTDFLPGLNFSNCSRRALEKALLDGMGSCLFERL
As for B4, the Relative proteolytic activity entry was “*****” in data set [1]; “***” in data set [2]; “*****” in data set [3]; “***” in data set [4]; “***” in data set [5]; “***” in [6]. The Relative proteolytic activity result is “****” in data set [7]; “*” in data set [8]; “***” in [9]; “***” in data set [10]; “*” in data set [11].

B5: soluble recombinant human ADAM8, active (processed) form (protein)
chain: RYVELYVVVDNAEFQMLGSEAAVRHRVLEVVNHVDKLYQKLNFRVVLVGLEIWNSQDRFHVSPDPSVTLENLLTWQARQRTRRHLHDNVQLITGVDFTGTTVGFARVSAMCSHSSGAVNQDHSKNPVGVACTMAHEMGHNLGMDHDENVQGCRCQERFEAGRCIMAGSIGSSFPRMFSDCSQAYLESFLERPQSVCLANAP
Regarding B5, the Hill coefficient entry in [1], in [2], in data set [3] and in [7] was “allosteric kinetics with a Hill coefficient of approximately 3” each time. The K0.5 (substrate concentration at which the enzyme activity was 50% of the Vmax) in [1] amounted to 5 µM; in data set [2], 5 µM; in [3], 2.5 µM; in data set [7], 5 µM. In addition, the Relative proteolytic activity entry is listed as “*****” in [1]; “***” in data set [2]; “*****” in [3]; “***” in data set [4]; “***” in data set [5]; “***” in data set [6]. The Relative proteolytic activity entry in data set [7] was “****”; in [8] it was “*”; in [9], “***”; in [10], “***”; in data set [11], “*”. In data set [3], the FRET peptide zymography entry is “lanes 2 and 3 contain active, processed, ADAM8 preparations”.
